Measurements published in IntAct's records for PubMed 33053355.

B1: GRB10-interacting GYF protein 2 (Homo sapiens), Q6Y7W6-1 (parent)
chain: MAAETQTLNFGPEWLRALSSGGSITSPPLSPALPKYKLADYRYGREEMLALFLKDNKIPSDLLDKEFLPILQEEPLPPLALVPFTEEEQRNFSMSVNSAAVLRLTGRGGGGTVVGAPRGRSSSRGRGRGRGECGFYQRSFDEVEGVFGRGGGREMHRSQSWEERGDRRFEKPGRKDVGRPNFEEGGPTSVGRKHEFIRSESENWRIFREEQNGEDEDGGWRLAGSRRDGERWRPHSPDGPRSAGWREHMERRRRFEFDFRDRDDERGYRRVRSGSGSIDDDRDSLPEWCLEDAEEEMGTFDSSGAFLSLKKVQKEPIPEEQEMDFRPVDEGEECSDSEGSHNEEAKEPDKTNKKEGEKTDRVGVEASEETPQTSSSSARPGTPSDHQSQEASQFERKDEPKTEQTEKAEEETRMENSLPAKVPSRGDEMVADVQQPLSQIPSDTASPLLILPPPVPNPSPTLRPVETPVVGAPGMGSVSTEPDDEEGLKHLEQQAEKMVAYLQDSALDDERLASKLQEHRAKGVSIPLMHEAMQKWYYKDPQGEIQGPFNNQEMAEWFQAGYFTMSLLVKRACDESFQPLGDIMKMWGRVPFSPGPAPPPHMGELDQERLTRQQELTALYQMQHLQYQQFLIQQQYAQVLAQQQKAALSSQQQQQLALLLQQFQTLKMRISDQNIIPSVTRSVSVPDTGSIWELQPTASQPTVWEGGSVWDLPLDTTTPGPALEQLQQLEKAKAAKLEQERREAEMRAKREEEERKRQEELRRQQEEILRRQQEEERKRREEEELARRKQEEALRRQREQEIALRRQREEEERQQQEEALRRLEERRREEEERRKQEELLRKQEEEAAKWAREEEEAQRRLEENRLRMEEEAARLRHEEEERKRKELEVQRQKELMRQRQQQQEALRRLQQQQQQQQLAQMKLPSSSTWGQQSNTTACQSQATLSLAEIQKLEEERERQLREEQRRQQRELMKALQQQQQQQQQKLSGWGNVSKPSGTTKSLLEIQQEEARQMQKQQQQQQQHQQPNRARNNTHSNLHTSIGNSVWGSINTGPPNQWASDLVSSIWSNADTKNSNMGFWDDAVKEVGPRNSTNKNKNNASLSKSVGVSNRQNKKVEEEEKLLKLFQGVNKAQDGFTQWCEQMLHALNTANNLDVPTFVSFLKEVESPYEVHDYIRAYLGDTSEAKEFAKQFLERRAKQKANQQRQQQQLPQQQQQQPPQQPPQQPQQQDSVWGMNHSTLHSVFQTNQSNNQQSNFEAVQSGKKKKKQKMVRADPSLLGFSVNASSERLNMGEIETLDDY
B2: GRB10-interacting GYF protein 2 (Homo sapiens), Q6Y7W6-1 (parent)
chain: B1 chain
partner: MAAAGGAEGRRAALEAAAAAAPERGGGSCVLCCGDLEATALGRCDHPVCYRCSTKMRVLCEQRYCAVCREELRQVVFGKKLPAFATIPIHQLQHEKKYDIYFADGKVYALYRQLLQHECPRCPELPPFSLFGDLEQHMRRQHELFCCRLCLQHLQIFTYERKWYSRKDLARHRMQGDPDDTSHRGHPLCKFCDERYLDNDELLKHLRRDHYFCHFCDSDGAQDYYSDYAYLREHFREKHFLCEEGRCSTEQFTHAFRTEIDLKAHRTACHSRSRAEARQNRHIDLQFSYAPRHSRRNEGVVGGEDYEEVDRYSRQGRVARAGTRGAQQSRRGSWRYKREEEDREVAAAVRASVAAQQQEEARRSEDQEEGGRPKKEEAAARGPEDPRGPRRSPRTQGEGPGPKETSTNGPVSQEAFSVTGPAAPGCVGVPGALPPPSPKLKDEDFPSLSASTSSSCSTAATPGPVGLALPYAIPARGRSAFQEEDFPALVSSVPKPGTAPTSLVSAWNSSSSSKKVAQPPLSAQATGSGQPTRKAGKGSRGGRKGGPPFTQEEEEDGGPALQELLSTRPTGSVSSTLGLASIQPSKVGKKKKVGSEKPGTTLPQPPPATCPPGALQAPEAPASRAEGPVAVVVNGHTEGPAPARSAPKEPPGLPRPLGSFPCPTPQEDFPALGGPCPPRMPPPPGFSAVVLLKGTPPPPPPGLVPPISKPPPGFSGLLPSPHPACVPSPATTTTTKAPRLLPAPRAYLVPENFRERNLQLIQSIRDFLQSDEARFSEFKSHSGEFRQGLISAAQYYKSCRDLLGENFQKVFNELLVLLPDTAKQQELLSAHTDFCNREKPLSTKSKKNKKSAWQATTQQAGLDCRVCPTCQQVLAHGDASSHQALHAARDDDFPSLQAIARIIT
B3: GRB10-interacting GYF protein 1 (Homo sapiens), O75420 (parent)
chain: MAAETLNFGPEWLRALSGGGSVASPPPSPAMPKYKLADYRYGREEMLALYVKENKVPEELQDKEFAAVLQDEPLQPLALEPLTEEEQRNFSLSVNSVAVLRLMGKGAGPPLAGTSRGRGSTRSRGRGRGDSCFYQRSIEEGDGAFGRSPREIQRSQSWDDRGERRFEKSARRDGARCGFEEGGAGPRKEHARSDSENWRSLREEQEEEEEGSWRLGAGPRRDGDRWRSASPDGGPRSAGWREHGERRRKFEFDLRGDRGGCGEEEGRGGGGSSHLRRCRAPEGFEEDKDGLPEWCLDDEDEEMGTFDASGAFLPLKKGPKEPIPEEQELDFQGLEEEEEPSEGLEEEGPEAGGKELTPLPPQEEKSSSPSPLPTLGPLWGTNGDGDETAEKEPPAAEDDIRGIQLSPGVGSSAGPPGDLEDDEGLKHLQQEAEKLVASLQDSSLEEEQFTAAMQTQGLRHSAAATALPLSHGAARKWFYKDPQGEIQGPFTTQEMAEWFQAGYFSMSLLVKRGCDEGFQPLGEVIKMWGRVPFAPGPSPPPLLGNMDQERLKKQQELAAAALYQQLQHQQFLQLVSSRQLPQCALREKAALGDLTPPPPPPPQQQQQQLTAFLQQLQALKPPRGGDQNLLPTMSRSLSVPDSGRLWDVHTSASSQSGGEASLWDIPINSSTQGPILEQLQLQHKFQERREVELRAKREEEERKRREEKRRQQQQEEQKRRQEEEELFRRKHVRQQELLLKLLQQQQAVPVPPAPSSPPPLWAGLAKQGLSMKTLLELQLEGERQLHKQPPPREPARAQAPNHRVQLGGLGTAPLNQWVSEAGPLWGGPDKSGGGSSGLGLWEDTPKSGGSLVRGLGLKNSRSSPSLSDSYSHLSGRPIRKKTEEEEKLLKLLQGIPRPQDGFTQWCEQMLHTLSATGSLDVPMAVAILKEVESPYDVHDYIRSCLGDTLEAKEFAKQFLERRAKQKASQQRQQQQEAWLSSASLQTAFQANHSTKLGPGEGSKAKRRALMLHSDPSILGYSLHGSSGEIESVDDY
partner: B2 partner

Variants of: B1
Conditions: with EIF4E2, O60573-1
Chain of EIF4E2, O60573-1 (O60573 whole entry): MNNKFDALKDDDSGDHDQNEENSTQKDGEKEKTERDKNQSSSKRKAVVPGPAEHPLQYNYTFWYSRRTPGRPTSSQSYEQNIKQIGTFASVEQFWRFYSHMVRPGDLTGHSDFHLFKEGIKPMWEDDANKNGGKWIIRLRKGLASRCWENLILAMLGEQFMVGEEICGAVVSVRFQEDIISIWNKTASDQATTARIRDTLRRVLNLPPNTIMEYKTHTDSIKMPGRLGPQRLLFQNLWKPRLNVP

effect of a mutation on the interaction	Variant
with no effect	W288A;F300A;F306A
with no effect	Y538A;F549A;W557A;F563A
disrupting interaction strength	Y41A;Y43A;M48A;L49A

Variants of: B1
Conditions: with rl22l_human RPL22L1, Q6P5R6

effect of a mutation on the interaction	Variant
with no effect	Y538A;F549A;W557A;F563A

Variants of: B2
Conditions: with zn598_human ZNF598, Q86UK7

effect of a mutation on the interaction	Variant
disrupting interaction strength	Y538A;F549A;W557A;F563A

Variants of: B3
Conditions: with zn598_human ZNF598, Q86UK7

effect of a mutation on the interaction	Variant
disrupting interaction strength	Y479A;F490A;W498A;F504A
